Experimental data from article PMC5016258.

Experiments:
[1] = target: Angiotensin-(1-7) Mas receptor fused to enhanced yellow fluorescent protein (UniProt P04201); assay: radioligand binding
[2] = target: B2R-MasR heteromer on cells co-transfected with B2R-CFP and MasR-YFP (UniProt P30411); assay: radioligand binding
UniProt P30411, sequence (P30411 whole entry, chain 1 of 2): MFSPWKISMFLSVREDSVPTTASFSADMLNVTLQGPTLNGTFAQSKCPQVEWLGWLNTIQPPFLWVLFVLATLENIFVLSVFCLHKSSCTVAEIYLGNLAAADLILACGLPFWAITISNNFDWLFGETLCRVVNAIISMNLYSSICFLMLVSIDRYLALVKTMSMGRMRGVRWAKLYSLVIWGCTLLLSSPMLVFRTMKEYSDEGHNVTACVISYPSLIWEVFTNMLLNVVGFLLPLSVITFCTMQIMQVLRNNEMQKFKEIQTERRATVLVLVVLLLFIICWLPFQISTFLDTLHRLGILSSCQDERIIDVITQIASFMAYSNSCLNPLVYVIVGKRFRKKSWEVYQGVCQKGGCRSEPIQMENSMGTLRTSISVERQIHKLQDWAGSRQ
UniProt P30411, sequence (P04201 whole entry, chain 2 of 2, further chain): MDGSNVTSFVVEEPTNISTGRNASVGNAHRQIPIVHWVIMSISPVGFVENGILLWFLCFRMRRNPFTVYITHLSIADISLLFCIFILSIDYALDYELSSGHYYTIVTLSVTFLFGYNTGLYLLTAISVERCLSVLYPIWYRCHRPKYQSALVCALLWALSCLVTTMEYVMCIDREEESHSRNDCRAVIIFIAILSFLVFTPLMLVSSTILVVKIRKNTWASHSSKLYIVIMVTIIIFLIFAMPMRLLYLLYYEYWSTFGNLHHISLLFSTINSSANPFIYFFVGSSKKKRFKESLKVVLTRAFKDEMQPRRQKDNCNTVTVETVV

UniProt P04201, sequence (P04201 whole entry, the tested form may be a part): as the sequence (P04201 whole entry, chain 2 of 2, further chain) above

Kd [1]: 1.15 nM | Kd [2]: 0.139 nM
Substance: Angiotensin-(1-7) (peptide)
